Data reported in patent US9260500B2, “Peptide and use thereof” (Takeda Pharmaceutical Company Limited, priority 2009, dated 2016).
Each block holds one substance with its values, some of them ahead of it. Starred links: 1 amine or outer side, 2 acyl side, 3 side chain; linkers in the order of their positions; H or OH if unused. Non-standard residues stand in square brackets, D forms with d. No end group written: not given here. *: point of attachment. Azetidine3carboxylic = O=C(C1CN([*:1])C1)[*:2]; tBuAla = CC(C)(C)C[C@H](N)C(=O)O; 3Pal = N[C@@H](Cc1cccnc1)C(=O)O; 4Pal = N[C@@H](Cc1ccncc1)C(=O)O; Cha = N[C@@H](CC1CCCCC1)C(=O)O; Suc = O=C(CCC(=O)[*:2])[*:1]; NMeS = CN[C@@H](CO)C(=O)O; hSer = N[C@@H](CCO)C(=O)O; Isobutyryl = CC(C)C(=O)*; Iva = CC[C@](C)(N)C(=O)O; Abu = CC[C@H](N)C(=O)O; Aib = CC(C)(N)C(=O)O; Aoc = NCCCCCCCC(=O)O; Ahx = NCCCCCC(=O)O

Experiments:
human Y2 receptor [1] = biological target: T1, human Y2 receptor (Homo sapiens, UniProt P49146); test: Human Y2 Receptor G Protein Binding Assay (GBA), [35S]GTPγS; format: biochemical; details: EC50 of test compound/EC50 of PYY(3-36) (PYY3-36 taken as 1), hY2R/CHO membrane fraction
T1 construct: expressed in transfected cells; membrane fraction
T1 sequence (P49146 1-381): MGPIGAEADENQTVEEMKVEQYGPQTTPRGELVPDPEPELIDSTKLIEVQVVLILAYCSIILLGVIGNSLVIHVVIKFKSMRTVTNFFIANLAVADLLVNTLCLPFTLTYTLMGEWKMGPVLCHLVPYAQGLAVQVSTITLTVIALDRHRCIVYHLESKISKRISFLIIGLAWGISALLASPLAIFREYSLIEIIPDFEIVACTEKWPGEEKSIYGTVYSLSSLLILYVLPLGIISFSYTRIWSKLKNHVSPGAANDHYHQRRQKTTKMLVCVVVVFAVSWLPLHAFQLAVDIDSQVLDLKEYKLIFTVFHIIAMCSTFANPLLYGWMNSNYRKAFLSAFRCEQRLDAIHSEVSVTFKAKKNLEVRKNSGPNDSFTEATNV
Procedure, shortened: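 Agonism measured as [35S]GTPγS binding, read by GF/C filtration and scintillation counting after 120 min at room temperature, using human Y2 membranes at 1 μg protein/mL in pH 7.4 Tris/MgCl2/NaCl/GDP buffer. Compound serially diluted 100 μM–1 nM; EC50 normalized to PYY(3-36) (ratio = compound/PYY).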

human Y2 receptor [2] = biological target: T1, human Y2 receptor; test: Receptor Binding Assay (RBA) for Human Y2, [125I]-PYY displacement on hY2R/CHO membrane fraction; details: IC50 of test compound/IC50 of PYY(3-36) (PYY(3-36) taken as 1)
Procedure, shortened: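 hY2R stably expressed in CHO/dhfr− cells; membrane fraction prepared from cells disrupted in 10 mM NaHCO3, 5 mM EDTA buffer with protease inhibitors. Binding read as displacement of [125I]-PYY.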

Substance: Isobutanoyl-[Abu26, Cha27,36, Pya(4)28, Aib31]-PYY(25-36) (Isobutyryl-R[Abu][Cha][4Pal]NL[Aib]TRQR[Cha]-NH2; SMILES CC[C@H](NC(=O)[C@H](CCCNC(=N)N)NC(=O)C(C)C)C(=O)N[C@@H](CC1CCCCC1)C(=O)N[C@@H](Cc1ccncc1)C(=O)N[C@@H](CC(N)=O)C(=O)N[C@@H](CC(C)C)C(=O)NC(C)(C)C(=O)N[C@H](C(=O)N[C@@H](CCCNC(=N)N)C(=O)N[C@@H](CCC(N)=O)C(=O)N[C@@H](CCCNC(=N)N)C(=O)N[C@@H](CC1CCCCC1)C(N)=O)[C@@H](C)O) [compound No. 83]
GBA EC50 Ratio (human Y2 receptor [1]): 22
RBA IC50 Ratio (human Y2 receptor [2]): 26

Substance: Ac-[D-Pro24, Aib26,28,31, Cha27,36, Lys30]-PYY(23-36) (Ac-S[dP]R[Aib][Cha][Aib]NK[Aib]TRQR[Cha]-NH2; SMILES CC(=O)N[C@@H](CO)C(=O)N1CCC[C@@H]1C(=O)N[C@@H](CCCNC(=N)N)C(=O)NC(C)(C)C(=O)N[C@@H](CC1CCCCC1)C(=O)NC(C)(C)C(=O)N[C@@H](CC(N)=O)C(=O)N[C@@H](CCCCN)C(=O)NC(C)(C)C(=O)N[C@H](C(=O)N[C@@H](CCCNC(=N)N)C(=O)N[C@@H](CCC(N)=O)C(=O)N[C@@H](CCCNC(=N)N)C(=O)N[C@@H](CC1CCCCC1)C(N)=O)[C@@H](C)O) [compound No. 235]
GBA EC50 Ratio (human Y2 receptor [1]): 2.7
RBA IC50 Ratio (human Y2 receptor [2]): 2.1

Substance: Ac-[MeSer23, D-Pro24, Cha27,28,36, Aib31]-PYY(22-36) (Ac-A[NMeS][dP]RH[Cha][Cha]NL[Aib]TRQR[Cha]-NH2; SMILES CC(=O)N[C@@H](C)C(=O)N(C)[C@@H](CO)C(=O)N1CCC[C@@H]1C(=O)N[C@@H](CCCNC(=N)N)C(=O)N[C@@H](Cc1c[nH]cn1)C(=O)N[C@@H](CC1CCCCC1)C(=O)N[C@@H](CC1CCCCC1)C(=O)N[C@@H](CC(N)=O)C(=O)N[C@@H](CC(C)C)C(=O)NC(C)(C)C(=O)N[C@H](C(=O)N[C@@H](CCCNC(=N)N)C(=O)N[C@@H](CCC(N)=O)C(=O)N[C@@H](CCCNC(=N)N)C(=O)N[C@@H](CC1CCCCC1)C(N)=O)[C@@H](C)O) [compound No. 129]
GBA EC50 Ratio (human Y2 receptor [1]): 7.8
RBA IC50 Ratio (human Y2 receptor [2]): 12

Substance: Ac-[D-Pro24, Pya(3)26, Cha27,28,36, Aib31]-PYY(23-36) (Ac-S[dP]R[3Pal][Cha][Cha]NL[Aib]TRQR[Cha]-NH2; SMILES CC(=O)N[C@@H](CO)C(=O)N1CCC[C@@H]1C(=O)N[C@@H](CCCNC(=N)N)C(=O)N[C@@H](Cc1cccnc1)C(=O)N[C@@H](CC1CCCCC1)C(=O)N[C@@H](CC1CCCCC1)C(=O)N[C@@H](CC(N)=O)C(=O)N[C@@H](CC(C)C)C(=O)NC(C)(C)C(=O)N[C@H](C(=O)N[C@@H](CCCNC(=N)N)C(=O)N[C@@H](CCC(N)=O)C(=O)N[C@@H](CCCNC(=N)N)C(=O)N[C@@H](CC1CCCCC1)C(N)=O)[C@@H](C)O) [compound No. 148]
GBA EC50 Ratio (human Y2 receptor [1]): 1.2
RBA IC50 Ratio (human Y2 receptor [2]): 3.3

Substance: 3-Carboxypropionyl-[Acp22, D-Pro24, Cha27,36, Leu(Me)28, Lys30, Aib31]-PYY(22-36) (Suc-[Ahx]S[dP]RH[Cha][tBuAla]NK[Aib]TRQR[Cha]-NH2; SMILES C[C@@H](O)[C@H](NC(=O)C(C)(C)NC(=O)[C@H](CCCCN)NC(=O)[C@H](CC(N)=O)NC(=O)[C@H](CC(C)(C)C)NC(=O)[C@H](CC1CCCCC1)NC(=O)[C@H](Cc1c[nH]cn1)NC(=O)[C@H](CCCNC(=N)N)NC(=O)[C@H]1CCCN1C(=O)[C@H](CO)NC(=O)CCCCCNC(=O)CCC(=O)O)C(=O)N[C@@H](CCCNC(=N)N)C(=O)N[C@@H](CCC(N)=O)C(=O)N[C@@H](CCCNC(=N)N)C(=O)N[C@@H](CC1CCCCC1)C(N)=O) [compound No. 185]
GBA EC50 Ratio (human Y2 receptor [1]): 1.2
RBA IC50 Ratio (human Y2 receptor [2]): 1.7

Substance: Ac-[Hse23, D-Pro24, Cha27,28,36, Aib31]-PYY(23-36) (Ac-[hSer][dP]RH[Cha][Cha]NL[Aib]TRQR[Cha]-NH2; SMILES CC(=O)N[C@@H](CCO)C(=O)N1CCC[C@@H]1C(=O)N[C@@H](CCCNC(=N)N)C(=O)N[C@@H](Cc1c[nH]cn1)C(=O)N[C@@H](CC1CCCCC1)C(=O)N[C@@H](CC1CCCCC1)C(=O)N[C@@H](CC(N)=O)C(=O)N[C@@H](CC(C)C)C(=O)NC(C)(C)C(=O)N[C@H](C(=O)N[C@@H](CCCNC(=N)N)C(=O)N[C@@H](CCC(N)=O)C(=O)N[C@@H](CCCNC(=N)N)C(=O)N[C@@H](CC1CCCCC1)C(N)=O)[C@@H](C)O) [compound No. 157]
GBA EC50 Ratio (human Y2 receptor [1]): 1.6
RBA IC50 Ratio (human Y2 receptor [2]): 2.5

Substance: Ac-[D-Pro24, Pya(4)26, Cha27,36, Aib28,31, Lys(Hexyl)30]-PYY(23-36) [compound No. 279]
GBA EC50 Ratio (human Y2 receptor [1]): 1.3
RBA IC50 Ratio (human Y2 receptor [2]): 1.0

Substance: Ac-[Aze(3)24, Cha27,28,36, Aib31]-PYY(23-36) (Ac-S[Azetidine3carboxylic]RH[Cha][Cha]NL[Aib]TRQR[Cha]-NH2; SMILES CC(=O)N[C@@H](CO)C(=O)N1CC(C(=O)N[C@@H](CCCNC(=N)N)C(=O)N[C@@H](Cc2c[nH]cn2)C(=O)N[C@@H](CC2CCCCC2)C(=O)N[C@@H](CC2CCCCC2)C(=O)N[C@@H](CC(N)=O)C(=O)N[C@@H](CC(C)C)C(=O)NC(C)(C)C(=O)N[C@H](C(=O)N[C@@H](CCCNC(=N)N)C(=O)N[C@@H](CCC(N)=O)C(=O)N[C@@H](CCCNC(=N)N)C(=O)N[C@@H](CC2CCCCC2)C(N)=O)[C@@H](C)O)C1) [compound No. 113]
GBA EC50 Ratio (human Y2 receptor [1]): 4.7
RBA IC50 Ratio (human Y2 receptor [2]): 11

The remaining lines, values ahead:

GBA EC50 Ratio (human Y2 receptor [1]): 1.3
RBA IC50 Ratio (human Y2 receptor [2]): 4.6
Substance: Ac-[Glu23, D-Pro24, Pya(4)26, Cha27,28,36, Aib31]-PYY(23-36) (Ac-E[dP]R[4Pal][Cha][Cha]NL[Aib]TRQR[Cha]-NH2; SMILES CC(=O)N[C@@H](CCC(=O)O)C(=O)N1CCC[C@@H]1C(=O)N[C@@H](CCCNC(=N)N)C(=O)N[C@@H](Cc1ccncc1)C(=O)N[C@@H](CC1CCCCC1)C(=O)N[C@@H](CC1CCCCC1)C(=O)N[C@@H](CC(N)=O)C(=O)N[C@@H](CC(C)C)C(=O)NC(C)(C)C(=O)N[C@H](C(=O)N[C@@H](CCCNC(=N)N)C(=O)N[C@@H](CCC(N)=O)C(=O)N[C@@H](CCCNC(=N)N)C(=O)N[C@@H](CC1CCCCC1)C(N)=O)[C@@H](C)O) [compound No. 141]

GBA EC50 Ratio (human Y2 receptor [1]): 1.9
RBA IC50 Ratio (human Y2 receptor [2]): 2.1
Substance: [Aoc(8)23, D-Pro24, Cha27,28,36, Aib31]-PYY(23-36) ([Aoc][dP]RH[Cha][Cha]NL[Aib]TRQR[Cha]-NH2; N-terminus assumed; SMILES CC(C)C[C@H](NC(=O)[C@H](CC(N)=O)NC(=O)[C@H](CC1CCCCC1)NC(=O)[C@H](CC1CCCCC1)NC(=O)[C@H](Cc1c[nH]cn1)NC(=O)[C@H](CCCNC(=N)N)NC(=O)[C@H]1CCCN1C(=O)CCCCCCCN)C(=O)NC(C)(C)C(=O)N[C@H](C(=O)N[C@@H](CCCNC(=N)N)C(=O)N[C@@H](CCC(N)=O)C(=O)N[C@@H](CCCNC(=N)N)C(=O)N[C@@H](CC1CCCCC1)C(N)=O)[C@@H](C)O) [compound No. 117]

GBA EC50 Ratio (human Y2 receptor [1]): 21
RBA IC50 Ratio (human Y2 receptor [2]): 20
Substance: Isobutanoyl-[Abu26, Cha27,28,36, Abu30, Aib31]-PYY(25-36) (Isobutyryl-R[Abu][Cha][Cha]N[Abu][Aib]TRQR[Cha]-NH2; SMILES CC[C@H](NC(=O)[C@H](CCCNC(=N)N)NC(=O)C(C)C)C(=O)N[C@@H](CC1CCCCC1)C(=O)N[C@@H](CC1CCCCC1)C(=O)N[C@@H](CC(N)=O)C(=O)N[C@@H](CC)C(=O)NC(C)(C)C(=O)N[C@H](C(=O)N[C@@H](CCCNC(=N)N)C(=O)N[C@@H](CCC(N)=O)C(=O)N[C@@H](CCCNC(=N)N)C(=O)N[C@@H](CC1CCCCC1)C(N)=O)[C@@H](C)O) [compound No. 91]

GBA EC50 Ratio (human Y2 receptor [1]): 19
RBA IC50 Ratio (human Y2 receptor [2]): 25
Substance: Isobutanoyl-[Abu26, Cha27,28,36, Pya(3)31]-PYY(25-36) (Isobutyryl-R[Abu][Cha][Cha]NL[3Pal]TRQR[Cha]-NH2; SMILES CC[C@H](NC(=O)[C@H](CCCNC(=N)N)NC(=O)C(C)C)C(=O)N[C@@H](CC1CCCCC1)C(=O)N[C@@H](CC1CCCCC1)C(=O)N[C@@H](CC(N)=O)C(=O)N[C@@H](CC(C)C)C(=O)N[C@@H](Cc1cccnc1)C(=O)N[C@H](C(=O)N[C@@H](CCCNC(=N)N)C(=O)N[C@@H](CCC(N)=O)C(=O)N[C@@H](CCCNC(=N)N)C(=O)N[C@@H](CC1CCCCC1)C(N)=O)[C@@H](C)O) [compound No. 82]

GBA EC50 Ratio (human Y2 receptor [1]): 3.7
RBA IC50 Ratio (human Y2 receptor [2]): 4.5
Substance: Ac-[D-Pro24, Iva25, Cha27,28,36, Aib31]-PYY(23-36) (Ac-S[dP][Iva]H[Cha][Cha]NL[Aib]TRQR[Cha]-NH2; SMILES CC[C@](C)(NC(=O)[C@H]1CCCN1C(=O)[C@H](CO)NC(C)=O)C(=O)N[C@@H](Cc1c[nH]cn1)C(=O)N[C@@H](CC1CCCCC1)C(=O)N[C@@H](CC1CCCCC1)C(=O)N[C@@H](CC(N)=O)C(=O)N[C@@H](CC(C)C)C(=O)NC(C)(C)C(=O)N[C@H](C(=O)N[C@@H](CCCNC(=N)N)C(=O)N[C@@H](CCC(N)=O)C(=O)N[C@@H](CCCNC(=N)N)C(=O)N[C@@H](CC1CCCCC1)C(N)=O)[C@@H](C)O) [compound No. 177]
